T1: DND1 1-230 (RRM1-RRM2) (human, UniProt Q8IYX4 1-230)
T1 sequence: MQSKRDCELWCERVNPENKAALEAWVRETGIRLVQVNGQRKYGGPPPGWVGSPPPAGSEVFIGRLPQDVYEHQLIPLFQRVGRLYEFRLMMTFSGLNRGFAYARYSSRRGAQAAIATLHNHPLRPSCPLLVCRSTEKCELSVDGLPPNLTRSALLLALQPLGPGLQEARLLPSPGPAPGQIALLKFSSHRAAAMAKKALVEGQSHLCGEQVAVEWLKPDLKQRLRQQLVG

T2: DND1 13-230 (del1-12) (human, UniProt Q8IYX4 13-230, del1-12)
T2 sequence: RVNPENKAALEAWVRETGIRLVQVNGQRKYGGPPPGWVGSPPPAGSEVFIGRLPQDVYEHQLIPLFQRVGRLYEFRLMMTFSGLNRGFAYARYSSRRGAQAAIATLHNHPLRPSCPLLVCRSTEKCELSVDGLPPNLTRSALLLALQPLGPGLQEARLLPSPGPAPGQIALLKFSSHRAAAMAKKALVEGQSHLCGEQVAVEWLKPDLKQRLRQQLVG


Legend:
[1] = biological target: DND1 1-230 (RRM1-RRM2);NANOS3 ZF+C (human;human, UniProt Q8IYX4;P60323 1-230;55-173, |); assay: MST; DND1 titrated, 2 uM NANOS3 ZF+C; MST: 20 mM HEPES pH 7.4, 150 mM NaCl, 1 mM DTT, 0.05% Tween20 and 10 ug/mL yeast tRNA after 1:1 mixing, 5 nM Cy5-RNA, partner 2 uM final, 30 min at room temperature, measured at 25 C; settings: protein: recombinant;recombinant; tags: His6-SUMO removed by Ulp1; N-terminal Ser (residue 0) from BamHI site;His6-SUMO removed by Ulp1; N-terminal Ser (residue 54) from BamHI site; copies: 1;1; label: 5'-Cy5
Chain of DND1 1-230 (RRM1-RRM2);NANOS3 ZF+C (P60323 55-173, chain 2 of 2, one chain of several): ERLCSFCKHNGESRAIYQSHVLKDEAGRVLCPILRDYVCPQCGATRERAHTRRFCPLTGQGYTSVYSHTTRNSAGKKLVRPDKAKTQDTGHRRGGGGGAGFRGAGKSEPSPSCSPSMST

DND1 1-230 (RRM1-RRM2) = biological target: T1, DND1 1-230 (RRM1-RRM2); assay: MST; MST: 20 mM HEPES pH 7.4, 150 mM NaCl, 1 mM DTT, 0.05% Tween20 and 10 ug/mL yeast tRNA after 1:1 mixing, 5 nM Cy5-RNA, partner 2 uM final, 30 min at room temperature, measured at 25 C; settings: protein: recombinant; tags: His6-SUMO removed by Ulp1; N-terminal Ser (residue 0) from BamHI site; label: 5'-Cy5
[2] = biological target: DND1 13-230 (del1-12);NANOS3 ZF (ZF1-ZF2) (human;human, UniProt Q8IYX4;P60323 13-230;55-113, del1-12|); assay: MST; DND1 titrated, 2 uM NANOS3 ZF; MST: 20 mM HEPES pH 7.4, 150 mM NaCl, 1 mM DTT, 0.05% Tween20 and 10 ug/mL yeast tRNA after 1:1 mixing, 5 nM Cy5-RNA, partner 2 uM final, 30 min at room temperature, measured at 25 C; settings: protein: recombinant;recombinant; tags: His6-SUMO removed by Ulp1;His6-SUMO removed by Ulp1; N-terminal Ser (residue 54) from BamHI site; copies: 1;1; label: 5'-Cy5
Chain of DND1 13-230 (del1-12);NANOS3 ZF (ZF1-ZF2) (P60323 55-113, stated change not applied, chain 2 of 2, one chain of several): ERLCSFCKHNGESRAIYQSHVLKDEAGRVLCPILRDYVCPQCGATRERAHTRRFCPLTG

DND1 H189A;NANOS3 ZF+C = DND1 H189A;NANOS3 ZF+C (human;human, UniProt Q8IYX4;P60323 1-230;55-173, H189A|); assay: MST; DND1 titrated, 2 uM NANOS3 ZF+C; MST: 20 mM HEPES pH 7.4, 150 mM NaCl, 1 mM DTT, 0.05% Tween20 and 10 ug/mL yeast tRNA after 1:1 mixing, 5 nM Cy5-RNA, partner 2 uM final, 30 min at room temperature, measured at 25 C; settings: protein: recombinant;recombinant; tags: His6-SUMO removed by Ulp1;His6-SUMO removed by Ulp1; N-terminal Ser (residue 54) from BamHI site; copies: 1;1; label: 5'-Cy5
Chain of DND1 H189A;NANOS3 ZF+C (P60323 55-173, stated change not applied, one chain of several): as the sequence (P60323 55-173, chain 2 of 2, one chain of several) above

DND1 F93A;NANOS3 ZF+C = DND1 F93A;NANOS3 ZF+C (human;human, UniProt Q8IYX4;P60323 1-230;55-173, F93A|); assay: as above; settings: protein: recombinant;recombinant; tags: His6-SUMO removed by Ulp1;His6-SUMO removed by Ulp1; N-terminal Ser (residue 54) from BamHI site; copies: 1;1; label: 5'-Cy5
Chain of DND1 F93A;NANOS3 ZF+C (Q8IYX4 1-230 F93A, chain 1 of 2): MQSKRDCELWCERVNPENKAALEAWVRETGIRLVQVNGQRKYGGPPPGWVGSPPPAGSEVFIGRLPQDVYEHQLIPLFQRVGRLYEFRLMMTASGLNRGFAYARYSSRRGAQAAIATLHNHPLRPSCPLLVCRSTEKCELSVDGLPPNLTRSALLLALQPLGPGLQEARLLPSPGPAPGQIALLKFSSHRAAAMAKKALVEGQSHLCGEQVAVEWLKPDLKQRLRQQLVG
Chain of DND1 F93A;NANOS3 ZF+C (P60323 55-173, chain 2 of 2): as the sequence (P60323 55-173, chain 2 of 2, one chain of several) above

DND1 13-230 (del1-12) = biological target: T2, DND1 13-230 (del1-12); assay: MST; MST: 20 mM HEPES pH 7.4, 150 mM NaCl, 1 mM DTT, 0.05% Tween20 and 10 ug/mL yeast tRNA after 1:1 mixing, 5 nM Cy5-RNA, partner 2 uM final, 30 min at room temperature, measured at 25 C; settings: protein: recombinant; tags: His6-SUMO removed by Ulp1; label: 5'-Cy5
DND1 K196A;NANOS3 ZF+C = DND1 K196A;NANOS3 ZF+C (human;human, UniProt Q8IYX4;P60323 1-230;55-173, K196A|); assay: MST; DND1 titrated, 2 uM NANOS3 ZF+C; MST: 20 mM HEPES pH 7.4, 150 mM NaCl, 1 mM DTT, 0.05% Tween20 and 10 ug/mL yeast tRNA after 1:1 mixing, 5 nM Cy5-RNA, partner 2 uM final, 30 min at room temperature, measured at 25 C; settings: protein: recombinant;recombinant; tags: His6-SUMO removed by Ulp1;His6-SUMO removed by Ulp1; N-terminal Ser (residue 54) from BamHI site; copies: 1;1; label: 5'-Cy5
Chain of DND1 K196A;NANOS3 ZF+C (Q8IYX4 1-230 K196A, chain 1 of 2): as the sequence (Q8IYX4 1-230 F93A, chain 1 of 2) above, with A93F, K196A counted along it
Chain of DND1 K196A;NANOS3 ZF+C (P60323 55-173, chain 2 of 2): as the sequence (P60323 55-173, chain 2 of 2, one chain of several) above

| Binder | Kd [1] [µM] | Kd (DND1 1-230 (RRM1-RRM2)) [µM] | Kd (DND1 K196A;NANOS3 ZF+C) [µM] | other results |
| --- | --- | --- | --- | --- |
| AUGCCACUCU (ssRNA) [D1-N3mut] | 12 ± 3 | 11 ± 2.1 |  |  |
| AUAUGAAUUU (ssRNA) [CDK1 N3-DRE (Cy5)] |  |  |  | Kd [2]: 4 ± 2.4 µM; Kd (DND1 H189A;NANOS3 ZF+C): 0.16 ± 0.05 µM; Kd (DND1 F93A;NANOS3 ZF+C): 1.1 ± 0.4 µM; Kd (DND1 13-230 (del1-12)): 3.7 ± 1.4 µM |
| AUAUGACCCAUUU (ssRNA) [spacer] |  | 8.2 ± 3.6 |  |  |
| AUGCCAAUUU (ssRNA) [D1mut] | 15 ± 7.7 | 15 ± 4.7 |  |  |
| AUAUUAAUUU (ssRNA) [G3U] |  |  | 0.13 ± 0.02 |  |
| AUAUCAAUUU (ssRNA) [G3C] |  |  | 0.31 ± 0.09 |  |
| AUAUGACUCU (ssRNA) [N3mut] | 2.7 ± 1.1 | 6.4 ± 3.8 |  |  |
| AUAUAAAUUU (ssRNA) [G3A] |  |  | 0.17 ± 0.04 |  |

— doi:10.1101/2025.09.25.678639, “The DND1–NANOS3 complex shapes the primordial germ cell transcriptome via a heptanucleotide sequence in mRNA 3′ UTRs”
